How the values were obtained:
[1] = target: Fc-tagged human FGFR1c ectodomain (human) (UniProt P11362); test: plate assay: 100 ng FGF23 coated, 400 ng purified sKL-N694Q or wildtype, then 200 ng Fc-FGFR1c (FIG. 25F)
[2] = target: Fc-tagged human FGFR4 ectodomain (human), P22455; test: SPR: Fc-FGFR4 on the chip, FGF23 with sKL or heparin in solution; details: remark: other sources report otherwise
[3] = target: Fc-tagged human FGFR4 ectodomain (human), P22455; test: SPR: Fc-FGFR4 on the chip, FGF23 with heparin in solution (FIG. 11E); details: remark: other sources report otherwise
[4] = target: Fc-tagged human FGFR4 ectodomain (human), P22455; test: SPR (BIAcore T200): Fc-FGFR4 amine-coupled to the chip, FGF23 injected at 1000-63 nM, 25 °C; details: remark: other sources report otherwise
[5] = target: Fc-tagged human FGFR4 ectodomain (human), P22455; test: SPR: Fc-FGFR4 on the chip, FGF23 with sKL (human ectodomain, self-made) in solution (FIG. 11F); details: remark: other sources report otherwise

Fc-tagged human FGFR4 ectodomain (human), P22455, sequence (P22455 22-369): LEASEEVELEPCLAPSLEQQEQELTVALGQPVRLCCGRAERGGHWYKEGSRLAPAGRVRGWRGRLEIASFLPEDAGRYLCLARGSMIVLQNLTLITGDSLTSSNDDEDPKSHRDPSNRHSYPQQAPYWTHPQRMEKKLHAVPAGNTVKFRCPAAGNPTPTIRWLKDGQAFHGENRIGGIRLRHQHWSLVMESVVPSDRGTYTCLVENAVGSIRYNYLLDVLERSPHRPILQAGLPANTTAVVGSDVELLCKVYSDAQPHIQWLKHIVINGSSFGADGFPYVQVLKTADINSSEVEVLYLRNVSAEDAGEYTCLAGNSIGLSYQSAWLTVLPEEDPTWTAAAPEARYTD
Fc-tagged human FGFR1c ectodomain (human), sequence (P11362 22-376 limits assumed): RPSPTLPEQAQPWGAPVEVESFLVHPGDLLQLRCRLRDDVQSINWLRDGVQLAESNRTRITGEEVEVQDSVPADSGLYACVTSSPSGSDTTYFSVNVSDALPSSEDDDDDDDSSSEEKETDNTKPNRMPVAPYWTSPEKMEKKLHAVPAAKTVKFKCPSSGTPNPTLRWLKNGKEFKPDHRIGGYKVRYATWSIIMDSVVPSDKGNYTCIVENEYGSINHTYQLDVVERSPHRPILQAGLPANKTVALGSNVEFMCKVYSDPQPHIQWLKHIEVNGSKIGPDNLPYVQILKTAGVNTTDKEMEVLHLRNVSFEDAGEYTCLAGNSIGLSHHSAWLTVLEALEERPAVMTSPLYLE

| Binder | fold increase in formation of the trimeric FGF23/FGFR1c/sKL complex against wildtype sKL [1] | fold, effect of sKL on FGFR4 affinity for FGF23 against that of heparin [2] | fold increase in binding affinity in the presence of heparin [3] | Kd [4] | koff [4] | kon [4] | fold increase in binding affinity in the presence of sKL [5] |
| --- | --- | --- | --- | --- | --- | --- | --- |
| complex of FGF23 and sKL-N694Q (protein, part only; not given: FGF23 and C-terminal FLAG/His tag, not shown: small tags and cut ends) EPGDGAQTWARFSRPPAPEAAGLFQGTFPDGFLWAVGSAAYQTEGGWQQHGKGASIWDTFTHHPLAPPGDSRNASLPLGAPSPLQPATGDVASDSYNNVFRDTEALRELGVTHYRFSISWARVLPNGSAGVPNREGLRYYRRLLERLRELGVQPVVTLYHWDLPQRLQDAYGGWANRALADHFRDYAELCFRHFGGQVKYWITIDNPYVVAWHGYATGRLAPGIRGSPRLGYLVAHNLLLAHAKVWHLYNTSFRPTQGGQVSIALSSHWINPRRMTDHSIKECQKSLDFVLGWFAKPVFIDGDYPESMKNNLSSILPDFTESEKKFIKGTADFFALCFGPTLSFQLLDPHMKFRQLESPNLRQLLSWIDLEFNHPQIFIVENGWFVSGTTKRDDAKYMYYLKKFIMETLKAIKLDGVDVIGYTAWSLMDGFEWHRGYSIRRGLFYVDFLSQDKMLLPKSSALFYQKLIEKNGFPPLPENQPLEGTFPCDFAWGVVDNYIQVDTTLSQFTDLNVYLWDVHHSKRLIKVDGVVTKKRKSYCVDFAAIQPQIALLQEMHVTHFRFSLDWALILPLGNQSQVNHTILQYYRCMASELVRVNITPVVALWQPMAPNQGLPRLLARQGAWENPYTALAFAEYARLCFQELGHHVKLWITMNEPYTRQMTYSAGHNLLKAHALAWHVYNEKFRHAQNGKISIALQADWIEPACPFSQKDKEVAERVLEFDIGWLAEPIFGSGDYPWVMRDWLNQRNNFLLPYFTEDEKKLIQGTFDFLALSHYTTILVDSEKEDPIKYNDYLEVQEMTDITWLNSPSQVAVVPWGLRKVLNWLKFKYGDLPMYIISNGIDDGLHAEDDQLRVYYMQNYINEALKAHILDGINLCGYFAYSFNDRTAPRFGLYRYAADQFEPKASMKHYRKIIDSNGFPGPETLERFCPEEFTVCTECSFFHTRKS | 3 fold | – | – | – | – | – | – |
| human FGF23, Q9GZV9 25-251 (ligand, UniProt Q9GZV9 25-251, looked up) YPNASPLLGSSWGGLIHLYTATARNSYHLQIHKNGHVDGAPHQTIYSALMIRSEDAGFVVITGVMSRRYLCMDFRGNIFGSHYFDPENCRFQHQTLENGYDVYHSPQYHFLVSLGRAKRAFLPGMNPPPYSQFLSRRNEIPLIHFNTPIPRRHTRSAEDDSERDPLNVLKPRARMTPAPASCSQELPSAEDNSPMASDPLGVVRGGRVNTHAGGTGPEGCRPFAKFI | – | 4 to 5 fold | 3 fold | 320 nM | 0.04 s⁻¹ | 120000 M⁻¹ s⁻¹ | 13 fold |

Reference: patent US20240384250A1, “FIBROBLAST GROWTH FACTOR 23 MODULATING COMPOUNDS” (THE UAB RESEARCH FOUNDATION, priority 2021, published 2024)
